For the data set, the system named is Saccharomyces cerevisiae. Briefly: transcriptional activation domain activity (GFP:mCherry ratio, weighted mean of sorted bins, harmonized to initial dataset scale) (arbitrary fluorescence ratio units); higher = stronger transcriptional activation. As to conditions: beta-estradiol 1 µM; induction time 4 h. Summed up:
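Values are activation activity, found as the read-weighted mean of bin median fluorescence, averaged across barcodes and then mapped linearly onto the initial dataset scale. Barcoded protein tiles fused to an estradiol-inducible synthetic transcription factor were integrated at the URA3 locus of GFP-reporter yeast diploids. Cells were induced for 4 hours at 30 °C with 1 uM beta-estradiol in SC, sorted into 8 bins by GFP:mCherry ratio, and barcode-sequenced, with tiles under 50 reads discarded.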

In the case of “MLQVVVQCFGISLLYFRSGVYLCIFTVHGLGYLFCVFCVFGFHSVWVGLCFFV”, the “transcriptional activation domain activity” value stood at 56600.

Take “MCHLTLLSLCFCSVASLLLSLFPLSLCLPFFILFIPPLFFLPHHIPSSFSFLV”: the “transcriptional activation domain activity” value was 59600.

In the case of “GHKAEESVPRKPSRSKSKAREAEWAPDGGEEPVSRKPSRSKAKPKAAEVEKED”, the “transcriptional activation domain activity” value is 23200.

As for “ISCAVSACIVCVINCAVTVWASVNNKANKGVLFEGDCEKVRQMNTGLHLLINL”, the “transcriptional activation domain activity” value turned out to be 66400.

For “SAFGGGGGASAFGSGTSAFGSGANTGSAFGGTASTPSTASAFGGGSAFGGAGS”, the “transcriptional activation domain activity” value amounted to 32700.

Take “GTGEEEEETTKHIVRKRGGGRGGRGKQESEQEWESEEEEEGTGEEEETTKQRT”: the “transcriptional activation domain activity” value turned out to be 39000.

With “RPPPRPPPQTPASPSPSPTSTTPPRSPSASRASPARPHPPSGRRTRTTRAPRR”, the “transcriptional activation domain activity” value stood at 56300.

Consider “LFYFIFILFFFTLGDICFRFFYFMGPCFVLFKMVLLIFFSPFSFLHLSLSWVT”, for which the “transcriptional activation domain activity” value is 43100.

“QWIHQYIAVPSGTPRDKCHLRQFCYMGLEQWGVGFIIGLLPLLLSVSLCIFLV”: the “transcriptional activation domain activity” value came out at 60400.

“QSNWVEGFSTHHEPFRPHKRRIKSVIDCSERTAVLVADLIGGLPCVVELKPKW”: the “transcriptional activation domain activity” value amounted to 64400.

In the case of “MNQHYGFLNCDLFFYFFFSSLFLIWPFLLFSFSFTVFPYLFTIMETYFGHIKT”, the “transcriptional activation domain activity” value stood at 28700.

“VTHHYGNRVGVRWLTNGIKCYYVPFAIIHRNAIFPTVWSLFPILRNILIRERI”: the “transcriptional activation domain activity” value amounted to 63400.

For the sequence “MGPPFFDGFSDGSSDLGSLFLPNGDSANWDLSWSAETFWQLENEYTSLPSFFD”, the “transcriptional activation domain activity” value was determined as 144000.

As for “NSTVHNLIELIPLQQLCGFCCFSMRFVVFLDLLSTVVQPVIVGYIVYLIVILT”, the “transcriptional activation domain activity” value is 60200.

For the sequence “EDDEELVEEVAKKGKGKGKGKAGKAAAAIGAAEGGKGRRGRKPKAKGAEEQGE”, the “transcriptional activation domain activity” value worked out at 60600.

“FRVNLMSCIVARLSKKSWIRSVSFPADLTGTASLEIVRLLNRMVKEKRFNIHP”: the “transcriptional activation domain activity” value stood at 36300.

In the case of “MRILQFFSFLYLLLYFSRTLLIVIYTLVILLLNQLLVFFKFLSLFFAFFWYVF”, the “transcriptional activation domain activity” value was 41400.

Regarding “VVPCLALVKKKSFFFVFFLLFLFLCTHLTACIAFSPFLFLFLFVFLFVALFSV”, the “transcriptional activation domain activity” value was found to be 40400.

Regarding “KIHLVNLGQISVFFIHRFLFGLIPLFEITTCAFFPLLISLWHIDYLLFYTVMF”, the “transcriptional activation domain activity” value worked out at 39800.

On to “MELVLHCFYLGAIRKPGHTYDSWSSDTPFQLSMIGDSNLLIIWLWLLIPWRSF”, for which the “transcriptional activation domain activity” value was determined as 80500.

Regarding “YLPYIVFPLTPQLSGPLCELYPSRGNLYDIFLHSILIMMQLPFILSVPFWLLF”, the “transcriptional activation domain activity” value worked out at 45500.

For “DVGNSVWHVDCCSPYVNGGSGWGFFNAILGWTNSATYGSVISYNLYWLFVIAV”, the “transcriptional activation domain activity” value came out at 51100.

With “MSGIFSLSHLLVFRFFFFSIMRFLLVFLYFLFLTITIPHSLSLSLHLFHLFVS”, the “transcriptional activation domain activity” value was 52600.

As for “MPDVIFKPPPADPCHYDMCLVLYYSVLFSHFIVGFFLRVLHLWCSLLHFYSRI”, the “transcriptional activation domain activity” value was determined as 63500.

Take “GEAGEAGEAGAEGTATEEREEEEEQQQKKEERKRKRKRKQQQGSGKVTVAAAK”: the “transcriptional activation domain activity” value stood at 45000.

As to “TGWCCLLMSIFSFNHAVLFVAFIFPNGVSCRKLLWNAMIGYVISLECSNLLLL”, the “transcriptional activation domain activity” value turned out to be 60800.

Consider “DLDILLAKLLEELEDSLQALKRLVVSAFLRFLTGVLYEEFMEAIRPNPHMDNE”, for which the “transcriptional activation domain activity” value was determined as 58200.

As for “HVQIASSDVIKRVSSRVAWCLKSILTILLNVNQLEMSVLRSRVLRLIVFFLHY”, the “transcriptional activation domain activity” value worked out at 62300.

Turning to “MIFIYMIFIYVIFLFLYFYIFFYFLFFIFIIFICCYFIFLYYLFSYFPFFLFY”, the “transcriptional activation domain activity” value was determined as 43500.

Regarding “KKKEEGKKRKRKRGKGRGRREKEERRKRGKEKGRRKERGKGKKKKESWGWRKG”, the “transcriptional activation domain activity” value was 42000.

Regarding “RLSSSSKSKRSLRHPQRALCSSRAWEEDGGGNPNGGRGFVVRIRRFGRARLHS”, the “transcriptional activation domain activity” value amounted to 62500.

In the case of “QCYNYLRVILMVSVGQGLARSVHWCMFLYQQGLDYVLWYYRNTLLLVSFLIGW”, the “transcriptional activation domain activity” value was 62200.

For “APKAAAPPPAPVPAPAPVAAPAPAASVELGPDGQPKRRRGRPKGSKNKPKIPP”, the “transcriptional activation domain activity” value turned out to be 35700.

“LSAIVWQIVVDYFYDFVYLTSGLLWPPPTDFIMHTEHFYAGQLIVLLFFYTSL”: the “transcriptional activation domain activity” value stood at 69200.

On to “TLIHEPDQLLFFPFFLFALFLSFPSFLLPSFFLLFLLFYFFPSYLLLCLFSFI”, for which the “transcriptional activation domain activity” value was found to be 51700.

In the case of “SLLEELTMRLLETDESHIKKIKDLSRFVNMIILRLFATGRRMSIFRSLFALLL”, the “transcriptional activation domain activity” value was 62600.

In the case of “IQEEVKAKKKRKSRKGAKEEGEASPAESSESDGEQEKPKKKASRKKKRPKVEG”, the “transcriptional activation domain activity” value turned out to be 27600.

“SIFVVFFISFVPLVVQELTERGFWRAATRLAKHFGSLSFLFEVFVCQVYANSL”: the “transcriptional activation domain activity” value came out at 65500.

As for “LIRIKDFTPNEVAAVVTYYSCRTNGMIPLTGRKWLGRIICRCLPLFDMLLFYR”, the “transcriptional activation domain activity” value amounted to 37500.

Turning to “ATWKLVQIGYRRDESLFLYFFYFYLFLFCFNMCGSSFYLLLLCCHIHIVAHSV”, the “transcriptional activation domain activity” value was 71000.

As to “RYLNITGRCRCSLQDLSFSVLLIRSLGAPLVELHVCCLYWWFGAYRLRFIFFI”, the “transcriptional activation domain activity” value was determined as 55000.

As for “VVNVLLSVFNGYDTGKSGIRCNPLPNSFIPLIMTAMLLSMLTFLLVTTIACYV”, the “transcriptional activation domain activity” value stood at 38300.

As to “SSRKEDKSERRHRHRHRSRSRDRDQRHRRHHRSDSRERNQDGDGERRRRHRRS”, the “transcriptional activation domain activity” value turned out to be 26700.

For the sequence “EVSEESGDSGDDEGRKEKKKRKRVKEEEVEDEGERKKKKSKKSKDEKSAEKAD”, the “transcriptional activation domain activity” value is 47600.

In the case of “DGSNGIAQLFGVVFFLFFFLHIYYICWALGLVGFVSGRRGNIVWFVLLCLFLS”, the “transcriptional activation domain activity” value was found to be 63800.

“QTIPKNQFASRVWTYMDPEVSRHLIDHYLGSIDLSRLELAVLALKCLYSRHTT”: the “transcriptional activation domain activity” value stood at 53900.

In the case of “VRLVDIFLLKKYYLINLSLAYLSILLFPPPSPRPLYHLFSIYFFFFLFSSASP”, the “transcriptional activation domain activity” value came to 45400.

In the case of “MIMGKVVGSIPTVSNFLPFSFLFFFSSFLFSSLSSCEVVCLIISFFSFFHWLS”, the “transcriptional activation domain activity” value worked out at 55200.

On to “ILGKLLYHMILLYLCVDLSLSEQIEHLSAATHLTMILYRLGGKDFIPTNLYIN”, for which the “transcriptional activation domain activity” value came to 45000.

With “IYETVNTITELSCLLPGGPWFPHARELWWYASEPAGVRYVAVLLSPTLRSLRL”, the “transcriptional activation domain activity” value was determined as 69700.

Take “TLHIVLVSYGMYFYLILNFANIAALLSPSWAFLVQVYLTCISDTVVRSVFFSR”: the “transcriptional activation domain activity” value was 69200.

As for “MVLLTFSLICNSCATVLELSEHLPVPWDVFCQHMCVRFLLPLLRVAAHALTSA”, the “transcriptional activation domain activity” value came out at 43000.

Take “GVEWWNVTSPEDSTYDPASLPLDVWDPLLPHDTGFSEIDITQCFFDPFFMPFL”: the “transcriptional activation domain activity” value is 160000.

Consider “VKEKTDQAKAEDRKRAEKRGEQYEDSSDEEKERRRKARQKAKQGGGTGAAKAP”, for which the “transcriptional activation domain activity” value was found to be 26200.

Turning to “MFTGTLLVVFMHYGWSFFLNCCLGCLVISFCFWYVKLWLLIGRCILVLCIVAR”, the “transcriptional activation domain activity” value came out at 69000.

As to “NEITIQDLNFLQFSSIPKLWENKTLEPGEEYHHSNGTNTDNNETTGADDTDDN”, the “transcriptional activation domain activity” value came to 24500.

Take “SVVLGVLHMSLSICTQVPNFIHFGRPSSIITEFLPQILFLHCLFGYLVFMIIY”: the “transcriptional activation domain activity” value was 79100.

As to “MCVGTCIYINIPGLHRCYLLLLHLRLSYHIPMYMFIGVPGLRFRVALLISSYF”, the “transcriptional activation domain activity” value amounted to 53300.

Consider “ICGSVLKELEHKPFFIWFLRCVYHKVLVVLKNGPSAVVSVAEVQRPPQIGDEV”, for which the “transcriptional activation domain activity” value was 30400.

Turning to “IFLFHINHAVFKSVVWWIGVFFFVYVLITIMPILRYDSPYYSPLSASVWFLYT”, the “transcriptional activation domain activity” value came to 45800.

For the sequence “MSLPIHRLLSYTCSIIYLLVHHLYFVFSFFIPVYFIQAQFFFAAFPFILFFIC”, the “transcriptional activation domain activity” value turned out to be 66900.

Take “AAAKAKDNIKEEDEADELAPVKKTAKKRGPKAQDVDGEGAPKKKPRGRPAKKA”: the “transcriptional activation domain activity” value was found to be 17000.

In the case of “MDKIRKGKVVVVGCGGVGSWAAVMLVRSCVQHFVVYLVCSSIYIIISGVSKIR”, the “transcriptional activation domain activity” value amounted to 58900.

On to “KQYCVRPNSGRIEPGKSVEVTVLLQAMKAEPPMDAKCRDKFLVQSVAVTADKE”, for which the “transcriptional activation domain activity” value amounted to 33600.

Regarding “MSTVPRLRLHLHLHLHLHLRLHLHLQLSTPKPTEDGAEHGTERGTERGTERGT”, the “transcriptional activation domain activity” value stood at 49700.

For “RHICLILINIAVGLRFIFYAIDPYCIYNIFNPILNRLLFVTFYWIALLAYVLM”, the “transcriptional activation domain activity” value came out at 48100.

Consider “SKWTTVDADDDLMRTFIRAYFLYEYDWFTFFHKDYFLDDMLAGSSTFCSPLLV”, for which the “transcriptional activation domain activity” value amounted to 42000.

In the case of “SKDLTRLTLISIMLEKCEGDYSAACVEQYLTVLLKFAVLAVVSDQTLHLSILA”, the “transcriptional activation domain activity” value turned out to be 52000.

Turning to “GESKEERRSKKDKKRKREAEGVPAEEEASEVQDKKKKKSKNASAMEVDSATPT”, the “transcriptional activation domain activity” value is 30900.

Regarding “EIAEGDEAEAARPAKIPRKPRRKKAVEGEGANEEGGAAPPRPKRKRKTKSKSA”, the “transcriptional activation domain activity” value was 42100.

“KLKEKNKKRKRGEEVSDDEEEGPKDDEPKEKKAKKEEEHGVWVGNLAFATSQD”: the “transcriptional activation domain activity” value is 36700.

With “MIITLSRLFFFFFFFPVRFLAFLNHFFLFFFFFWLRWGLSVCFFILSWPGEKS”, the “transcriptional activation domain activity” value is 46400.

As to “VVDHCVSRFSGFTFLFFVLFTAFYMWQIISFVLGVLRLVDMYNFYTHLLKIPD”, the “transcriptional activation domain activity” value was 54300.

For the sequence “GVLRLFQICLPCFAAVDFVQGFVRYLYHIPNFNGVYETKMWVWVGLIICLIFK”, the “transcriptional activation domain activity” value stood at 53900.

Values taken from the supplement of paper PMC12636428.
